Data on two substances can be found in patent US6896881.

The target of assay [1] is human EGF receptor on CHO-hEGFr cells (human) (UniProt P00533). Put plainly: flow cytometry on CHO-hEGFr cells; 3.9 is the secondary antibody alone. (In general: A flow cytometer gives signals particle by particle.)
Assay [2] deals with human IGF1 receptor on 3T3-hIGF1r cells (human) (UniProt P08069). Put plainly: flow cytometry on 3T3-hIGF1r cells; 5.7 is the secondary antibody alone.
UniProt P08069, sequence (P08069 31-1367): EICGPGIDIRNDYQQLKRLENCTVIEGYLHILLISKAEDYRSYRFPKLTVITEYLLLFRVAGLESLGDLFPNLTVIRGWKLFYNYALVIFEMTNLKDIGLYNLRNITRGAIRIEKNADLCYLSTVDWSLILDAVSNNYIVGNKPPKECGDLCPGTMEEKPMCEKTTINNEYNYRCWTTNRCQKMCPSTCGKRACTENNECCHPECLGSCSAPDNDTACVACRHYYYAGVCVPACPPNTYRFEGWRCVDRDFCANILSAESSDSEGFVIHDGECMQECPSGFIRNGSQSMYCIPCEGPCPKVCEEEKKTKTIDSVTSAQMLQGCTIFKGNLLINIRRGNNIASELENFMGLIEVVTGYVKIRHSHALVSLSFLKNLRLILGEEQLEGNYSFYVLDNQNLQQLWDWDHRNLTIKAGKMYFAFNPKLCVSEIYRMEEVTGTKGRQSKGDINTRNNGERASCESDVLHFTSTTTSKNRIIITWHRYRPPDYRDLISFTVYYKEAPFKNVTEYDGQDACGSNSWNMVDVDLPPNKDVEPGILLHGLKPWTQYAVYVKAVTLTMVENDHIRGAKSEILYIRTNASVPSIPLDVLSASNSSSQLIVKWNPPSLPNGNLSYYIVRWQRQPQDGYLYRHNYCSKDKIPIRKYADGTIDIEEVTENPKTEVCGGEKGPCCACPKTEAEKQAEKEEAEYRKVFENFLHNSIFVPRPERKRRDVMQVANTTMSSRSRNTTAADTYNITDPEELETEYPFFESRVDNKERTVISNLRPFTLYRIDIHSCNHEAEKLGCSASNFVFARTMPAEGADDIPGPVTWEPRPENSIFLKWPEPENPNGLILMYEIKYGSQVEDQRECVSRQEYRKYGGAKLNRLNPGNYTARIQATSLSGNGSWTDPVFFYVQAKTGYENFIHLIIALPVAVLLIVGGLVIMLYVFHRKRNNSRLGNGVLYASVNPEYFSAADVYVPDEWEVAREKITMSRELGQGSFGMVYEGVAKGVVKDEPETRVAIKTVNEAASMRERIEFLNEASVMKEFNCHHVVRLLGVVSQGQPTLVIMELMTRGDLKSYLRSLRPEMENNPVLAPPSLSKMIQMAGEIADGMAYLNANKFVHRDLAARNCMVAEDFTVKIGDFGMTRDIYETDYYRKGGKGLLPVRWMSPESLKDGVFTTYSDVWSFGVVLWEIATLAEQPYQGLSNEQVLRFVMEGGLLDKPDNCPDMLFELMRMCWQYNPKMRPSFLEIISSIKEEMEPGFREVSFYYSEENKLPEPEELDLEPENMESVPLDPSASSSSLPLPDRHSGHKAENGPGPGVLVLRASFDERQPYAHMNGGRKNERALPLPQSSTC

In the case of “monoclonal anti-hEGFr antibody clone 528 (Santa Cruz, sc-120)”, the mean fluorescence in assay [1] is 466. On to “monoclonal anti-hIGF1r antibody clone 33255.111 (R&D Systems, MAB391)”, for which the mean fluorescence in assay [2] is 251.
